For two substances, K half results are on record in PMC8927971.

The data set relates to CIZ1 N571ΔPLD2 (Mus musculus). In words: EMSA. The following applies: 10 mM Tris-HCl pH 7.5, 30 mM NaCl, 2.5 mM MgCl2, 0.2 mM DTT, 0.1% IGEPAL CA-630, 0.1 mg/ml yeast tRNA, 0.4 U RNaseOUT, 1% glycerol; 30 C 20 min; 0.7% agarose …. In general terms: In EMSA bound probe runs differently from free probe, usually more slowly.

For the substance Xist repeat A, the K half is 100 nM.

The substance Xist repeat E proximal came in with a K half of 100 nM.
